Results reported in patent US20150119342A1 (published 2015).
Where no end group is shown, it is not given here. [ ]: non-standard residue; d: D form. The star is where a group is joined. 5FAM = O=C1OC2(c3ccc(O)cc3Oc3cc(O)ccc32)c2ccc(C(=O)*)cc21; Abu = CC[C@H](N)C(=O)O

How the values were obtained:
[1] = molecular target: T1, human cIAP1 BIR3 domain with C-terminal 6xHis-tag (human, UniProt Q13490 251-363, limits assumed); experiment: fluorescence polarization, saturation binding; 2 nM probe, protein 0 to 20 µM
T1 construct: domain: BIR3
T1 sequence (Q13490 other isoform, or with tags, fused parts or gaps limits assumed): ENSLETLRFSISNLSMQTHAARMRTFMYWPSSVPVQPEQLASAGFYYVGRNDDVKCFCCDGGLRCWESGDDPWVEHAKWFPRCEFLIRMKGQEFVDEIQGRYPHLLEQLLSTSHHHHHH
Method: (§1) After shaking (15 min) the plate was incubated for 3 hours at room temperature. […] All experiments were performed in black, flat-bottom 96-well microplates (Greiner bio-one).

[2] = molecular target: T2, human cIAP2 BIR3 domain with C-terminal 6xHis-tag (human, UniProt Q13489 237-349, limits assumed); experiment: as above
T2 construct: domain: BIR3
T2 sequence (Q13489 other isoform, or with tags, fused parts or gaps limits assumed): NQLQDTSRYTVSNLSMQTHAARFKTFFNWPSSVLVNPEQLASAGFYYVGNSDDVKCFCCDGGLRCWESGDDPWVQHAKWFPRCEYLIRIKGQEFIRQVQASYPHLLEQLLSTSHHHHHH
Method: as §1

B1: Fluorescent-labelled Smac peptide [AbuRPF-K(5-Fam)-NH2] (peptide)
peptide: [Abu]RPFK(5FAM)-NH2
modifications: N-terminus assumed
SMILES: CC[C@H](N)C(=O)N[C@@H](CCCNC(=N)N)C(=O)N1CCC[C@H]1C(=O)N[C@@H](Cc1ccccc1)C(=O)N[C@@H](CCCCNC(=O)c1ccc2c(c1)C(=O)OC21c2ccc(O)cc2Oc2cc(O)ccc21)C(N)=O
notes: Synthetic labelled probe used in the fluorescence polarization assays; also called FITC-SMAC; fluorescently-labelled Smac peptide
Kd [1]: 0.0048 µM
Kd [2]: 0.0236 µM
